Measured values from US20060093553A1, “Cd26-based therapies for cancers and immune disease” (priority 2002, published 2006).

Columns and labels:
Assay type in all cases: cell-based, Human
monocytes = assay: Confocal laser microscopy of sCD26 uptake
Method: For fluorescent microscopy studies of uptake of sCD26 by monocytes; purified monocytes were incubated with sCD26-OG (1 μg/ml) with or without preincubation with. TT (0.5 μg/ml). Cells were then washed in ice-cold PBS twice and were incubated in acidic PBS (pH 3.0) to strip any sCD26-OG attached to the cell surface. The cells were then attached to microslide glass (Matsunami Glass, Tokyo, Japan) and fixed with 3% paraformaldehyde in PBS for 15 min at room temperature. Cells were blocked with mouse Ig isotypes (1 μg/ml) for 30 min at 4° C., followed by incubation with biotinylated anti-CD14 (10 μg/ml) for 30 min at 4° C., then washed with ice-cold PBS twice and incubated with streptavidin-conjugated Texas red conjugate (1/200; Beckman Coulter) for 30 min at 4° C. In studies of sCD26 uptake via M6P/IGF-IIR on monocytes, purified monocytes were incubated with or without TT for 16 h, and sCD26-OG and M6P/IGF-IIR-red were added to the culture well after being blocked with mouse Ig isotypes (1 μg/ml) for 30 min at 4° C. Cells were then incubated for 30 min at 4° C. For detection of cell surface colocalization, cells were washed in ice-cold PBS twice and were attached to microslide glass, followed by fixation with 3% paraformaldehyde in PBS for 15 min at room temperature. […]

[1] = test system: PBMC subpopulations (CD3, CD14, CD19, CD56); assay: sCD26-OG incorporation into PBMC subpopulations (flow cytometry); conditions: 24 h, presence or absence of TT; FIG. 9
Method: Assessment of the PBMC population that takes up sCD26-OG was performed with PE-conjugated anti-CD3, anti-CD14, anti-CD19, and anti-CD56 mAbs (10 μg/ml). For these experiments, 1×10^6 PBMC/well were incubated in standard medium containing sCD26-OG for 24 h with or without preincubation with TT. Cells were then washed twice in ice-cold PBS, followed by incubation for 2 min in acidic PBS (pH 3.0) to strip any sCD26-OG attached to the cell surface. Cells were subsequently washed in ice-cold PBS and were incubated with mouse Ig isotypes (1 μg/ml) to block nonspecific binding; this was followed by reaction with PE-conjugated mabs.
(§1) Flow cytometric analysis of 10,000 viable cells was conducted on FACSCalibur (BD Biosciences, Mountain View, Calif.). Each experiment was repeated at least three times, and the results were provided in the form of a histogram of a representative experiment, or increased mean percent±SE fluorescent intensity compared with control or untreated cells.

[2] = test system: CD86 expression on monocytes; assay: Surface expression on monocytes (flow cytometry); conditions: after TT and sCD26 stimulation; FIG. 13
Method: In studies assessing the expression of CD80, CD86, and HLA-DR on purified monocytes (0.5×10^6 monocytes/well), monocytes were preincubated with or without TT (0.5 μg/ml) for 16 h. Following incubation with sCD26 (0.5 μg/ml) for 24 h, FITC-conjugated CD80, CD86, and HLA-DR mAbs (10 μg/ml) were used with PE-conjugated anti-CD14 (10 μg/ml) to gate exclusively on the monocyte population. In experiments assessing the effect of M6P on cellular uptake of sCD26, purified monocytes (0.5×10^6 monocytes/well) were incubated with the appropriate concentration of M6P in the presence or absence of sCD26-OG for 24 h in standard medium. Cells were then washed twice in ice-cold PBS, followed by incubation for 2 min in acidic PBS (pH 3.0) to strip any sCD26-OG attached to the cell surface. Cells were washed in ice-cold PBS and were incubated with mouse Ig isotypes (1 μg/ml) to block nonspecific binding; this was followed by reaction with PE-conjugated anti-CD14 (10 μg/ml) to gate exclusively on monocyte population.
as §1

[3] = test system: monocytes and purified T cells; assay: Reconstitution/fixation study: T cell proliferation with preincubated monocytes ([3H]TdR); conditions: TT-pulsed monocytes fixed with 0.05% glutaraldehyde before or after sCD26; FIGS. 12A, 12B
Method: All cells were preincubated in the standard medium for 24 h to minimize the risk of potential interference from sCD26 present in human serum (Tanaka et al., 1993). In these studies, cells were incubated in 96-well plates (200 μl/well; Falcon, Franklin Lakes, N.J.). For the time-course study, 1.0×10^5 PBMC were incubated with 0.5 μg/ml TT for 16 h. Then, 0.5 μg/ml sCD26 was added to the well and was incubated for 0, 6, 12, 24, 48, 72, and 96 h. The day when the first sCD26 was added to the culture well was defined as day 0 of culture. All assays in proliferation experiments were performed on day 7 of culture after cells were incubated at 37° C. in a 5% CO2 humidified atmosphere. For the reconstitution study, 0.5×10^6 of monocytes were preincubated with TT, at a concentration of 0.5 μg/ml with different concentrations of sCD26 for 24 h. Monocytes were washed with PBS, and then 1×10^4/well of preincubated monocytes were subjected to the assay with 1×10^5/well of purified T cells from the same donor as the prepared monocytes. […]
T-cell proliferation induced by APC was measured by [^3H]TdR (ICN Radiochemicals, Irvine, Calif.) uptake. Seven-day-incubated cells were pulsed with 1 μCi/well of [^3H]TdR 8 h before harvesting onto a glass-fiber filter (Wallac, Turk, Finland), and the incorporated radioactivity was quantified by a liquid scintillation counter (Wallac).

CD86 mRNA in monocytes = assay: Relative quantitative RT-PCR assay; conditions: monocytes with TT 16 h then sCD26 0.5 μg/ml 24 h
PBMC = assay: TT-induced proliferation of PBMC, time-course ([3H]TdR incorporation); conditions: DPPIV-deficient mutant sCD26 in PBMC time-course
Text: Human PBMC, collected from healthy adult volunteers who were immunized with TT within two years before donation, were isolated by centrifugation on Ficoll/Paque (Amersham Pharmacia Biotech, Piscataway, N.J.). PBMC were directly used for the time-course studies. For the reconstitution studies, PBMC were further purified into T cell fractions and APC fractions. To obtain a highly purified T cell population, PBMC were separated into an E rosette-positive (E^+) population and were used as resting T cells as determined by flow cytometric analysis (FACSCalibur; Nippon BD Biosciences, Tokyo, Japan) using an FITC-labeled anti-CD3 mAb (BD PharMingen, San Diego, Calif.) with purity being >95%. To obtain APC, an E rosette-negative (E^−) population was adhered to plastic plates for 4 h at 37° C., and adherent cells were used as APC. Monocytes were either purified by a flow cytometer on the basis of PE-labeled anti-CD14 mAb (BD PharMingen)-oriented parameter, or by negative selection through the use of immunomagnetic beads coated with an anti-CD3, CD7, CD19, CD45RA, CD56, and IgE mAb Qailtenyi Biotec, Auburn, Calif.) with purity being >95%. […]
T-cell proliferation induced by APC was measured by [^3H]TdR (ICN Radiochemicals, Irvine, Calif.) uptake. […]

B1: sCD26/DPPIV^−: mutant sCD26 without DPPIV activity, Ser630 replaced by Ala at the active site (protein)
chain: MKGLLGAAALVTIITVPVVLLNKGTDDATADSRKTYTLTDYLKNTYRLKLYSLRWISDHEYLYKQENNILVFNAEYGNSSVFLENSTFDEFGHSINDYSISPDGQFILLEYNYVKQWRHSYTASYDIYDLNKRQLITEERIPNNTQWVTWSPVGHKLAYVWNNDIYVKIEPNLPSYRITWTGKEDIIYNGITDWVYEEEVFSAYSALWWSPNGTFLAYAQFNDTEVPLIEYSFYSDESLQYPKTVRVPYPKAGAVNPTVKFFVVNTDSLSSVTNATSIQITAPASMLIGDHYLCDVTWATQERISLQWLRRIQNYSVMDICDYDESSGRWNCLVARQHIEMSTTGWVGRFRPSEPHFTLDGNSFYKIISNEEGYRHICYFQIDKKDCTFITKGTWEVIGIEALTSDYLYYISNEYKGMPGGRNLYKIQLSDYTKVTCLSCELNPERCQYYSVSFSKEAKYYQLRCSGPGLPLYTLHSSVNDKGLRVLEDNSALDKMLQNVQMPSKKLDFIILNETKFWYQMILPPHFDKSKKYPLLLDVYAGPCSQKADTVFRLNWATYLASTENIIVASFDGRGSGYQGDKIMHAINRRLGTFEVEDQIEAARQFSKMGFVDNKRIAIWGWAYGGYVTSMVLGSGSGVFKCGIAVAPVSRWEYYDSVYTERYMGLPTPEDNLDHYRNSTVMSRAENFKQVEYLLIHGTADDNVHFQQSAQISKALVDVGVDFQAMWYTDEDHGIASSTAHQHIYTHMSHFIKQCFSLP
B1 was tested, and the “intracellular detection of sCD26 in monocytes” value (monocytes; 36 h after incubation of monocytes with sCD26) was “no longer detectable intracellularly”, the “uptake by monocytes (confocal microscopy)” value (monocytes; sCD26-OG 1 μg/ml) was “clearly taken up by monocytes” and the “PBMC population that takes up sCD26” value [1] was “preferentially taken up by CD14-positive monocytes”. For the same molecule, the “CD86 expression on monocytes” value [2] was “did not affect CD86 expression”, the “enhanced T cell proliferation, fixation study” value [3] was “seen only when the monocytes were incubated with sCD26/DPPIV^+ before fixation” and the “CD86 mRNA levels (RT-PCR)” value (CD86 mRNA in monocytes) was “did not demonstrate enhanced CD86 mRNA levels”. For the same molecule, the “CD86 mRNA levels (RT-PCR)” value (CD86 mRNA in monocytes; listed as sCD26/DPPIV^+) was “increased mRNA levels” and the “enhancing effect of TT-induced T cell proliferation” value (PBMC) was “not observed”.
